The results in this text go back to US20260015399A1 (Boehringer Ingelheim, published 2026).

*1 amine or outer side, *2 acyl side, *3 side chain or, on linkers, in order; H or OH if unused. Side-chain parts run from the residue outwards. The star is where a group is joined. C18 diacid = O=C(O)CCCCCCCCCCCCCCCCC(=O)*; γGlu = O=C(O)[C@H](CCC(=O)[*:2])N[*:1]; Isovaleryl = CC(C)CC(=O)*; Ahx = NCCCCCC(=O)O

Broadly, the Ki is a measure of affinity in units of concentration, obtained from inhibition or displacement. A higher Ki goes with a looser hold on the target.

In the assay the target is T1, human NPY2 receptor (human, UniProt P49146 1-381).
T1 construct: whole, on cells; also called hNPY2-R; hNPY2R
T1 sequence (looked up): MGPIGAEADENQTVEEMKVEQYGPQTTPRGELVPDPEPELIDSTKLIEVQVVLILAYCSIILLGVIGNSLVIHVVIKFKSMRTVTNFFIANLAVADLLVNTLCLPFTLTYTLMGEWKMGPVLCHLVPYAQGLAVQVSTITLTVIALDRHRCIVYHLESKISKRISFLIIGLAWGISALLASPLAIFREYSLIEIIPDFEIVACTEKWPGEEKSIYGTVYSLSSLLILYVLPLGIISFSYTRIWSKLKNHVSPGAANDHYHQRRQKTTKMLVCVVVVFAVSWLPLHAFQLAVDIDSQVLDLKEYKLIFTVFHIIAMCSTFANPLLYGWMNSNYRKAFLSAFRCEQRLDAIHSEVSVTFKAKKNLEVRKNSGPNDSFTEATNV
Kind of assay: RLB: displacement of 125I-PYY(1-36) from hNPY2R membranes.

B1: Compound 135 (peptide)
peptide: Isovaleryl-APEK([Ahx-γGlu-C18 diacid])PEAAAEPEEIQRYYVALRHYYNWLTRQRY-NH2
SMILES: CC[C@H](C)[C@H](NC(=O)[C@H](CCC(=O)O)NC(=O)[C@H](CCC(=O)O)NC(=O)[C@@H]1CCCN1C(=O)[C@H](CCC(=O)O)NC(=O)[C@H](C)NC(=O)[C@H](C)NC(=O)[C@H](C)NC(=O)[C@H](CCC(=O)O)NC(=O)[C@@H]1CCCN1C(=O)[C@H](CCCCNC(=O)CCCCCNC(=O)CC[C@H](NC(=O)CCCCCCCCCCCCCCCCC(=O)O)C(=O)O)NC(=O)[C@H](CCC(=O)O)NC(=O)[C@@H]1CCCN1C(=O)[C@H](C)NC(=O)CC(C)C)C(=O)N[C@@H](CCC(N)=O)C(=O)N[C@@H](CCCNC(=N)N)C(=O)N[C@@H](Cc1ccc(O)cc1)C(=O)N[C@@H](Cc1ccc(O)cc1)C(=O)N[C@H](C(=O)N[C@@H](C)C(=O)N[C@@H](CC(C)C)C(=O)N[C@@H](CCCNC(=N)N)C(=O)N[C@@H](Cc1c[nH]cn1)C(=O)N[C@@H](Cc1ccc(O)cc1)C(=O)N[C@@H](Cc1ccc(O)cc1)C(=O)N[C@@H](CC(N)=O)C(=O)N[C@@H](Cc1c[nH]c2ccccc12)C(=O)N[C@@H](CC(C)C)C(=O)N[C@H](C(=O)N[C@@H](CCCNC(=N)N)C(=O)N[C@@H](CCC(N)=O)C(=O)N[C@@H](CCCNC(=N)N)C(=O)N[C@@H](Cc1ccc(O)cc1)C(N)=O)[C@@H](C)O)C(C)C
For the molecule B1, the Ki worked out at 3.83 nM.

B2: Compound 139 (peptide)
peptide: Isovaleryl-APEK([Ahx-γGlu-C18 diacid])PEEEASPAELQRYYVSLRHYYNWLTRQRY-NH2
SMILES: CC(C)CC(=O)N[C@@H](C)C(=O)N1CCC[C@H]1C(=O)N[C@@H](CCC(=O)O)C(=O)N[C@@H](CCCCNC(=O)CCCCCNC(=O)CC[C@H](NC(=O)CCCCCCCCCCCCCCCCC(=O)O)C(=O)O)C(=O)N1CCC[C@H]1C(=O)N[C@@H](CCC(=O)O)C(=O)N[C@@H](CCC(=O)O)C(=O)N[C@@H](CCC(=O)O)C(=O)N[C@@H](C)C(=O)N[C@@H](CO)C(=O)N1CCC[C@H]1C(=O)N[C@@H](C)C(=O)N[C@@H](CCC(=O)O)C(=O)N[C@@H](CC(C)C)C(=O)N[C@@H](CCC(N)=O)C(=O)N[C@@H](CCCNC(=N)N)C(=O)N[C@@H](Cc1ccc(O)cc1)C(=O)N[C@@H](Cc1ccc(O)cc1)C(=O)N[C@H](C(=O)N[C@@H](CO)C(=O)N[C@@H](CC(C)C)C(=O)N[C@@H](CCCNC(=N)N)C(=O)N[C@@H](Cc1c[nH]cn1)C(=O)N[C@@H](Cc1ccc(O)cc1)C(=O)N[C@@H](Cc1ccc(O)cc1)C(=O)N[C@@H](CC(N)=O)C(=O)N[C@@H](Cc1c[nH]c2ccccc12)C(=O)N[C@@H](CC(C)C)C(=O)N[C@H](C(=O)N[C@@H](CCCNC(=N)N)C(=O)N[C@@H](CCC(N)=O)C(=O)N[C@@H](CCCNC(=N)N)C(=O)N[C@@H](Cc1ccc(O)cc1)C(N)=O)[C@@H](C)O)C(C)C
As to B2, the inhibitory constant (Ki) amounted to 3.6 nM.

B3: Compound 138 (peptide)
peptide: Isovaleryl-APEK([Ahx-γGlu-C18 diacid])PEEDAEPEELQEYYVSLRHYYNWLTRQRY-NH2
SMILES: CC(C)CC(=O)N[C@@H](C)C(=O)N1CCC[C@H]1C(=O)N[C@@H](CCC(=O)O)C(=O)N[C@@H](CCCCNC(=O)CCCCCNC(=O)CC[C@H](NC(=O)CCCCCCCCCCCCCCCCC(=O)O)C(=O)O)C(=O)N1CCC[C@H]1C(=O)N[C@@H](CCC(=O)O)C(=O)N[C@@H](CCC(=O)O)C(=O)N[C@@H](CC(=O)O)C(=O)N[C@@H](C)C(=O)N[C@@H](CCC(=O)O)C(=O)N1CCC[C@H]1C(=O)N[C@@H](CCC(=O)O)C(=O)N[C@@H](CCC(=O)O)C(=O)N[C@@H](CC(C)C)C(=O)N[C@@H](CCC(N)=O)C(=O)N[C@@H](CCC(=O)O)C(=O)N[C@@H](Cc1ccc(O)cc1)C(=O)N[C@@H](Cc1ccc(O)cc1)C(=O)N[C@H](C(=O)N[C@@H](CO)C(=O)N[C@@H](CC(C)C)C(=O)N[C@@H](CCCNC(=N)N)C(=O)N[C@@H](Cc1c[nH]cn1)C(=O)N[C@@H](Cc1ccc(O)cc1)C(=O)N[C@@H](Cc1ccc(O)cc1)C(=O)N[C@@H](CC(N)=O)C(=O)N[C@@H](Cc1c[nH]c2ccccc12)C(=O)N[C@@H](CC(C)C)C(=O)N[C@H](C(=O)N[C@@H](CCCNC(=N)N)C(=O)N[C@@H](CCC(N)=O)C(=O)N[C@@H](CCCNC(=N)N)C(=O)N[C@@H](Cc1ccc(O)cc1)C(N)=O)[C@@H](C)O)C(C)C
B3 showed an inhibition constant (Ki) of 12.5 nM.

B4: Compound 137 (peptide)
peptide: Isovaleryl-APEK([Ahx-γGlu-C18 diacid])PEEDATPEELQRYYVSLRHYYNWLLRQRY-NH2
SMILES: CC(C)CC(=O)N[C@@H](C)C(=O)N1CCC[C@H]1C(=O)N[C@@H](CCC(=O)O)C(=O)N[C@@H](CCCCNC(=O)CCCCCNC(=O)CC[C@H](NC(=O)CCCCCCCCCCCCCCCCC(=O)O)C(=O)O)C(=O)N1CCC[C@H]1C(=O)N[C@@H](CCC(=O)O)C(=O)N[C@@H](CCC(=O)O)C(=O)N[C@@H](CC(=O)O)C(=O)N[C@@H](C)C(=O)N[C@H](C(=O)N1CCC[C@H]1C(=O)N[C@@H](CCC(=O)O)C(=O)N[C@@H](CCC(=O)O)C(=O)N[C@@H](CC(C)C)C(=O)N[C@@H](CCC(N)=O)C(=O)N[C@@H](CCCNC(=N)N)C(=O)N[C@@H](Cc1ccc(O)cc1)C(=O)N[C@@H](Cc1ccc(O)cc1)C(=O)N[C@H](C(=O)N[C@@H](CO)C(=O)N[C@@H](CC(C)C)C(=O)N[C@@H](CCCNC(=N)N)C(=O)N[C@@H](Cc1c[nH]cn1)C(=O)N[C@@H](Cc1ccc(O)cc1)C(=O)N[C@@H](Cc1ccc(O)cc1)C(=O)N[C@@H](CC(N)=O)C(=O)N[C@@H](Cc1c[nH]c2ccccc12)C(=O)N[C@@H](CC(C)C)C(=O)N[C@@H](CC(C)C)C(=O)N[C@@H](CCCNC(=N)N)C(=O)N[C@@H](CCC(N)=O)C(=O)N[C@@H](CCCNC(=N)N)C(=O)N[C@@H](Cc1ccc(O)cc1)C(N)=O)C(C)C)[C@@H](C)O
As to B4, the Ki worked out at 49.6 nM.

B5: Compound 141 (peptide)
peptide: Isovaleryl-APEK([Ahx-γGlu-C18 diacid])PEEDATPEELQSYYVSLRHYYNWLTRQRY-NH2
SMILES: CC(C)CC(=O)N[C@@H](C)C(=O)N1CCC[C@H]1C(=O)N[C@@H](CCC(=O)O)C(=O)N[C@@H](CCCCNC(=O)CCCCCNC(=O)CC[C@H](NC(=O)CCCCCCCCCCCCCCCCC(=O)O)C(=O)O)C(=O)N1CCC[C@H]1C(=O)N[C@@H](CCC(=O)O)C(=O)N[C@@H](CCC(=O)O)C(=O)N[C@@H](CC(=O)O)C(=O)N[C@@H](C)C(=O)N[C@H](C(=O)N1CCC[C@H]1C(=O)N[C@@H](CCC(=O)O)C(=O)N[C@@H](CCC(=O)O)C(=O)N[C@@H](CC(C)C)C(=O)N[C@@H](CCC(N)=O)C(=O)N[C@@H](CO)C(=O)N[C@@H](Cc1ccc(O)cc1)C(=O)N[C@@H](Cc1ccc(O)cc1)C(=O)N[C@H](C(=O)N[C@@H](CO)C(=O)N[C@@H](CC(C)C)C(=O)N[C@@H](CCCNC(=N)N)C(=O)N[C@@H](Cc1c[nH]cn1)C(=O)N[C@@H](Cc1ccc(O)cc1)C(=O)N[C@@H](Cc1ccc(O)cc1)C(=O)N[C@@H](CC(N)=O)C(=O)N[C@@H](Cc1c[nH]c2ccccc12)C(=O)N[C@@H](CC(C)C)C(=O)N[C@H](C(=O)N[C@@H](CCCNC(=N)N)C(=O)N[C@@H](CCC(N)=O)C(=O)N[C@@H](CCCNC(=N)N)C(=O)N[C@@H](Cc1ccc(O)cc1)C(N)=O)[C@@H](C)O)C(C)C)[C@@H](C)O
Take B5: the Ki turned out to be 8.17 nM.
